Data published in patent publication US6033903, “Method of expressing and secreting soluble extracellular domains of human gonadotropin hormone receptors” (Applied Research Systems, Ars Holding N.V., dated 2000).

Molecular target: human follicle stimulating hormone (recombinant hFSH) (human, UniProt P01215, ^125 I label on the tracer form (which chain and residue is not stated); unlabelled in the cold competitor, the affinity resin and the cell assay)
Assay: 125I-hFSH radioligand binding, summary of Example 2

B1: soluble hFSHR-EC secreted from baculovirus-infected insect cells (gp67 signal peptide fusion, pAcGP67-hFSHR-EC) (receptor)
chain: ADQCHHRICHCSNRVFLCQESKVTEIPSDLPRNAIELRFVLTKLRVIQKGAFSGFGDLEKIEISQNDVLEVIEADVFSNLPKLHEIRIEKANNLLYINPEAFQNLPNLQYLLISNTGIKHLPDVHKIHSLQKVLLDIQDNINIHTIERNSFVGLSFESVILWLNKNGIQEIHNCAFNGTQLDELNLSDNNNLEELPNDVFHGASGPVILDISRTRIHSLPSYGLENLKKLRARSTYNLKKLPTLEKLVALMEASLTYPSHCCAFANWRRQISELHPICNKSILRQEVDYMTQTRGQRSSLAEDNESSYSRGFDMTYTEFDYDLCNEVVDVTCSPKPDAFNPCEDIMGYNILR
- binding result: binds
